In the nanobody polyreactivity screen of Harvey et al. (2022):

Assay: yeast display, Sf9 membrane polyspecificity reagent, FACS + sequencing; frameworks hold sequencing errors
Method in brief: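 Polyreactivity labels are assigned by the sorting gate from which each nanobody was recovered. The gates were low and high (top ~1%), set on anti-HA fluorescence for expression and streptavidin fluorescence for reagent binding. Before sorting, galactose-induced (36–48 hours) yeast display cells were stained for 1 hour at 4 °C with 10% biotinylated, detergent-solubilized Sf9 membrane reagent.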

Sequence	polyreactivity (PSR sort gate)
QVQLVESGGGLVQAGGSLRLSCAASGRTFEIYAMGWYRQAPGKERDLVAAITSGGSTYYADSEKGRFTISRDNAKNTVYLQMNSLKPEDTAVYYCAADSSLYGVIRDFDYWGQGTQVTVSS	high polyreactivity
QVQLVESGGGLVQAGGSLRLSCAASGSTFTANAMGWSRQAPGKERELVAAISRSGGSTYYADSVKWRFTISRDNAKNTVYLQMNSLKPEDTAVYYCAAESPLFSPPDGEDYWGQGTQVTVSS	low polyreactivity
QVQLVESGGGLVQAGGSLRLSCAASGRTFGDYAMGWYRQAPGKERELVAAISGTGGSTYYADSVKGRFTISRDNAKNTVYLQMNSLKPEDTAVYYCAARLKYIRFYYWGQGTQVTVSS	high polyreactivity
QVQLVESGGGLVQAGGSLRLSCAASGLIFWINAMGWYRQAPWKERDLVAAITNSGGDTYYADSVKGRFTISRDNAKKTVYLQMNSLKTEDTAVYYCNADGTKWVRETYDYWGQGTQVTVSS	low polyreactivity
QVQHVESGGGLVQAGGSLRLSCAASGSTFKFYTMGWYRQAPGKERELVAGSTRAGSTNYADSVKGRFTISRDNAKNTVYLQMNSLKPEDTAVYYCNAYIWIYGCDYWGQGTQVTVSS	high polyreactivity
QVQLVESGGGLVQAGGSLRLSCAASGSIFSINAMGWYRQAPGKERELVAAINGSGGNTYYADSVKGRFTISRDNAKNTVYLQMNSLKPEDTAVYYCAAEGYSYWSFDELDYWGQGTQVTVSS	low polyreactivity
QVQLVESGGGLVQAGGSLRLSCAASGIFGSYAMGWYRQAPGKERELVAAISSGGSTYYADSVKGRFTISRDNAKNTVYLQMNSLKPEDTAVYYCAKRYGRAYRSYYWGQGTQVTVSS	high polyreactivity
QVQLVESGGGLVQAGGSLRLSCAASGRIFQYYDMGWYRQAPGKERELVAAITFSGGSTYYADSVKGRFTISRDNAKNTVYLLMNSLKPEDTAVYYCARGYWVYYPDGDYWGQGTQVTVSS	low polyreactivity
QVQLVESGGGLVQAGGSLRISCAASGFTFRYYAMGWYRQAPGKERELVATISTGSGVSTYYADSVKGRFTISRDNAKNTVYLQMNSLKPEDTAVYYCAADYDSYYAYRTPYGYWGQGTQVTVSS	low polyreactivity
QVQLVESGGGLVQAGGSLRLSCAASGSNYSGYTMGWYRQAPGKERELVAAISYRGGRTYYADSVKGRFTISRDNAKNTVYFLMNSLKPEDTAVYYCNAAPYITRRHDYWGQGTLVTVSS	high polyreactivity
QVQLVESGGGLVQAGGSLRLSCAASGSTLRSYAMGWYRQAPGKERELVAAIDWDGGRTYYADSVKGRFTISRDNAKNTVYLQMNSLKPEDTAVYYCNTSAGWSNGKDEGDFYSGFDYWGQGTQVTVSS	low polyreactivity
QVQLVESGGGLVQAGGSLRLSCAASGRIFVIYAMGWYRQAPGKERELVAVINDDGSTNYADSVKGRFTISRDNAKNTVYLQMNSLKPEDSAVYYCNAVYYSYRYGHDYWGQGTQVTVSS	low polyreactivity
QVQLVESGGGLVQAGGSLRLSCAASGSIFARYAMGWYRQAPGKERELVATISYRGSSTYYADSVKGRFTISRDNAKNTVYLQMNSLKPEDTAVYYCAARTYRRIYAYYRFDYWGQGTQVTVSS	low polyreactivity
QVQLVESGGGLVQAGGSLRLSCAASGRTFVSNAMGWYRQAPGKERELVAGINWTDDSTYYADSVKGRFTISRDNAKNTVYLQMNSLKPEDTAVYYCAADSWEFAWPRFDYWGQGTQVTVSS	low polyreactivity
QVQLVESGGGLVQAGGSLRLSCAASGFTFSSNVMGWYRQAPGKERELVAAISTSGDGSTYYADSVKGRFTISRDNAKNTVYLQMNSLIPEDTAVYYCAAEYPDEDGVYEYDSWGQGTQVTVSS	low polyreactivity
QVQLVESGGALVQAGGSLRLSCAASGSIFSSYAMGWYRQAPGKERELVAAISGSGDSTYYADSVKGRFTISRDNAKNTVYLQMNSLKPEDTAVYYCNAVYAFNGYDYWGQGTQVTVSS	low polyreactivity
QVQLVESGGGLVQAGGSLRLSCAASGSTSFLYALGWYRQAPGKERELVAAISRSGGTTYYADSVKGRFTISRDNAKNTVYLQMNSLKPEDTAVYYCNAVGPKRYDYWGQGTQVTVSS	high polyreactivity
QDHLVESGGGLVQAGGSLRLSCAASGSPFPSYAMGWYRQAPGKERELVAAINSGGGTTYADSVQGRFTISRDKAKNTVYLQMNSLKPEDTAVYYCARGPLSWHSYVEAEYGYWGQGTQVTVSW	low polyreactivity
QVQLVESGGGLVQAGGSLRLSCAASGRIFTWNAMGWYRQAPGKERELVATINRGGNTNYADSVKGRFTISRDNAKNTVYLQMNSLKPEDTAVYYCAARYHYSNLYRFAYGYWGQGTQVTVSS	high polyreactivity
QVQLVESGGGLVQAGGSLRLSCAASGYTFRTNVMGWYRQAPGTERELVATINWRGGSTYYADSVKGRFTISRDYAKNTVYLLINSLKPEDTAVYYCAADGLSNVRQMDYWGQGTQVTVSS	low polyreactivity
QVQLVESGGGLVQAGGSLRLSCAASGSISSAYGMGWYIQAPGKERELVATITSGGSTNYADSVKGRFTISRDNAKNTVYLQMNSLTPEDTAVYYCAVDRYALYSGGDYWGQGTQVTVSS	low polyreactivity
QVQLVDSGGGIVQAGGSLRVSCAASGRTFWYYTMGWYIQAPGKERELVAAITSGGSKYYSDSVKGRFTISRDNAKNTVYLQMISLNPEDTAVYYCAAYLLPAYSRISNDYWGQGTQVTVSS	high polyreactivity

Sequence	polyreactivity (PSR sort gate)
QVQLVESGGGLVQAGGSLRLSCAATGSTFWQYVMGWYRQAPGKERELVAAISYSGGSTYYADSVKGRFTISRDNAKNTVYLQMNSLKPEDTAVYYCATRGYRWSVFDYWGQGTQVTVSS	high polyreactivity
QVQLVESGGGLVQERGSLRLSCAASGSIFFPYAMGWSRQAPGKDRELVAAITRGGNTKYADSVKGRFTISRDNAKNTVYIQMNSLKPEDTAVFYCAARGASIPYGYWGQGTQVTVSS	high polyreactivity
QVQLVESGGGLVQAGGSLRLSCAASGITFPSYVMGWYRQAPGKEREFVAAITGSAGSTYYADSVKGRFTISRDNAKYTVYLQMNSLKPEDTAVYYCAARVRYVNPKYYYWGQGTQVTVSS	high polyreactivity
QVQLVESGGGLVQAGGSLRLSCAASGSIFPYYAMGWYRQAPGKERELVAAISSGGSTNYADSVKGRFTISRDNAKNTVYLQMNSLKPEDTAEYYCAARWSRIFRDRVKYWYDYWGQGTQVTVSS	low polyreactivity
QVQLVESGGGLDQAGGSLRLSCAASGRTFYIYTMGWYRQAPGKERELVAAISSSGDSTYYADSVKGRFTISRDNGKNTVYLQMNSLKPEDTAVYYCAAYATYPDEYWGEGTQVTVSS	low polyreactivity
QVQLVESGGGLVQAGGSLRLSCAASGITFDIYNMGWYRQAPGKERELVAAISYSGGSTYYADSVKGRFTISRDNAKNTVYLQMYSLKPEDTAVYYCAAYEGTYFTEVDYWGQGTQVTVSS	low polyreactivity
QVQLVESGGGLVQAGGSLRLSCASSGRTFTKYAMGWYRHPPGKESELVAAISRSGGSTYYADSVKGRFTISRDNAKNTVYLQMNSLKPEDTAVYYWAARGQYRYSFGDYSWGQGTQVTVSS	high polyreactivity
QVQLVESGGGLVQAGGSLRLSCAASGFTFFDNAMGWYRQAPGKERELVAAITWSDGSTYYADSVKGRFTISRDNAKNTVYLQMNSLKPEDTAVYYCAVGFISYSYSNYYDVWYEYYYWGQGTQVTVSS	low polyreactivity
QVQLVESGGGLVQAGGSLRLSCAASGTTFFNNAMGWYRQAPGKERELVAAITSGRTYYADSVKGRFTISRDNAKNTVYLLMNSLKPEDTAVDYCAKDADQDADKPFQFTMDYWGQGTEVTVSS	low polyreactivity
QVQLVESGGGLVQAGGSLRLSCAASGSTFLYNAMRWYRQAPGKEREFVAAISGSGGTTYYADSVKGRFTISRDNAKNTFYLQMNSLKPEDTAVYYCAVSQSWYWYYASDYWGQGTQVTVSS	low polyreactivity
QVQLVESGGGLVQAGGSLRLSCAASGFIFYFYAMGWYRQAPGKERELVAAISSGGSTNYADSVKGRFTISRDNAQNTVYIQMNSQKPEDTAVYYCNKSGYSKYFLNDYTYWGQGTQVTVSS	low polyreactivity
QVQLEESGGGLVQAGGSLRLSCAASGLTFYSYAMGWYRQAPGKERELVAGINYSGDSTHYADSVKGRFTISRDNAKNTVYLQMNSLKPEDTAVYYCASQTFVYRKELLSRYEYWGQGTQVTVSS	high polyreactivity
QVQLEESGGGLVQAGGSLRLSCAASGRIFAYYAMGWYRQAPGKERELVAAIRGSGGSTYYADSVKGRFTISRDNAKNTVYLQMNSLKPEDTAVYYCAARTQPKKFYYWGQGTQVTVSS	high polyreactivity
QVQLVESGGGLVQAGGSLRISCAASARIFQVYGMGWYRQAPGKERELVASITYRGGSTYYADSVKGRFTISRDNAKNNVDLQMNSLKPEDTAVYYCAADGAFYASTEMDYWGQGTQVTVSS	low polyreactivity
QDQLVESGGGLVQAGGSLRLSCAASGRTLGKNAMGWYRQAPGTERELVAAISSSGGSTYYADSVKGRFTISRDNAKNTVYLQMNSLKPEDTAVYYCAAKYFRKYSQIGPDMYYWGQGTQVTVSS	high polyreactivity
QVQLVESGGGLVQAGGILRLSCAASGSTFYQYAMGWYRQAPGKERELVAAITRGGRTYYADSVKGRFTISRDNAKNTVYLQMNSLKPEDTAVYYCAAGYRTAYRGSSYYYWGQGTQVTVSS	high polyreactivity
QVQLVESGGGLVQAGGSLRLSCAASGFTFQRYTMGWYRQAPGKERELVAAITRSGGRTYYADSVKGRFTISRDNAKNTVYLQMNSLKPEDTAVYYCAVDYRTRGDYWGQGTQVTVSS	high polyreactivity
QVQLVESGGGLVQAGGSLRLSCAASGGTFGRYAMGWYRQAPGKERELVASITTGGRTNYADSVKGRFTISRDNAKNTVYLQMNSLKPEDTAVYYCAKKRYGYPLPFYYWGQGTQVTVSS	high polyreactivity
QVQLVESGGGLVQAGGSLRLSCAASGFTFGRIAMGGYRQAPGKERELVASIDWSGGSTYYADSVKGRFTISRDNAKNTVYLQMNSLKPEDTAVYYCAVGPNSVGNRSYGFDYWGQGTQVTVSS	low polyreactivity
QVQLVESGGGLVQAGGSLRLSCAASGSTFDYYAMGWSRQAPGKERELVAAITGTGGSTYYADSEKGRFTISRNNAKNTVYLQMNSLKPEDTAVYYCNRVSGTRRHTMDYWGQGTQVTVSS	low polyreactivity
QVQLVESVGGLVQAGGSLRLSCAASGSTFPFYAMGWYRQAPGKERELVAAITSGGSTYADSVKGRFTISRDNAKNTVYLQMNSLKPEDTAVYYCAASWPRWWRFGYWGQGTQVTVSS	low polyreactivity
